Experiment [1] concerns the target T1, Human proNGF (human, UniProt P01138 19-241).
T1 construct: This is the precursor form with the pro-peptide; also called h-proNGF; the pro-peptide
In words: SPR, Biacore 8K, binder captured on Protein A chip, ligand as analyte. The method, then: (§1) Binding affinity of fusion proteins to human and rat NGF was assessed using Biacore 8K (Cytiva). Briefly, Protein A Sensor Chip (Cytiva) was docked into Biacore 8K, equilibrated for 30′ at RT and then Running Buffer (10 mM HEPES pH7.4 150 mM NaCl 3 mM EDTA and 0.005% Tween20) was applied to the SPR chip surface.
(§2) PetML119var was diluted into running buffer at 6 nM concentration. These were immobilised using 90 sec association at 10 uL/min as capturing step, followed by injection of running buffer to remove any unbound product.

A further experiment concerns the target T2, Human BDNF (human, UniProt P23560 129-247).
T2 construct: mature; also called hBDNF
T2 sequence (looked up): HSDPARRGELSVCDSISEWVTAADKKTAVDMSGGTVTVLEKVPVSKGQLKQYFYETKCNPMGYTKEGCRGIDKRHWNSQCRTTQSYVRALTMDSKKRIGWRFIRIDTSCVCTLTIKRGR
The description is as above.

The target of another experiment is T3, Human NT-3 (human, UniProt P20783 139-257).
T3 construct: mature; also called hNT-3
T3 sequence (looked up): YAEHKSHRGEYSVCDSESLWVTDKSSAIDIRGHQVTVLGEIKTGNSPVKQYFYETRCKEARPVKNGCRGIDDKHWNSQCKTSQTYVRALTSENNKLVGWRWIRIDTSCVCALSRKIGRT
The experiment is described as above.

For a further experiment, the target named is T4, Human NT-4 (human, UniProt P34130 81-210).
T4 construct: mature; also called hNT-4
T4 sequence (looked up): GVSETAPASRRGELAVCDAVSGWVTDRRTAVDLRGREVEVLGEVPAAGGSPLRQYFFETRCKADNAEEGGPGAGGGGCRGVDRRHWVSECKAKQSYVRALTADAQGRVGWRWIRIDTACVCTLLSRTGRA
Described as above.

In experiment [2] the target is T1, Human proNGF. The experiment is described as above. The source holds these as a separate data set.
A further experiment deals with Human NGF (human) (UniProt P01138). The experiment in a line: cell-based or functional assay.
Chain of Human NGF (human) (P01138 122-241): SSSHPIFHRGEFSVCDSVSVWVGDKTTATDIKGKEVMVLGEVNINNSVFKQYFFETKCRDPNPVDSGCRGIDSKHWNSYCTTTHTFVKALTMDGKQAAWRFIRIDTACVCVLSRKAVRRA
In experiment [3] the target is NGF (species not stated) (Homo sapiens (Human)) (UniProt P01138). The experiment in a line: cell-based or functional assay.
Experiment [4] has as its target T5, Human NGF (human, UniProt P01138 122-241). In words: cell-based or functional assay.
Experiment [5] addresses T5, Human NGF. In words: SPR, Biacore 8K, binder captured on Protein A chip, ligand as analyte. The method, then:
as §1, §2

T5 sequence (P01138 122-241): as above
T1 sequence (P01138 19-241): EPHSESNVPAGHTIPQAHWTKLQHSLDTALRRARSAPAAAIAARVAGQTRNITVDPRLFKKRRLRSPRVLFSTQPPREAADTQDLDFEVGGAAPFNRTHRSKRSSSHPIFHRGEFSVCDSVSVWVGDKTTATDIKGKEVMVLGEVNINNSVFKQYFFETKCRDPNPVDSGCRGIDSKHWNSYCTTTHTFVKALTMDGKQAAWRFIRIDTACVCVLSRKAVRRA

B1: PetML119 (Canine p75NTR ECD-canine IgGB wt Fc protein fusion) (Fc fusion)
chain: KEACPTGLYTHSGECCKACNLGEGVAQPCGANQTVCEPCLDSVTFSDVVSATEPCKPCTECVGLQSMSAPCVEADDAVCRCAYGYYQDETTGRCEACRVCEAGSGLVFSCQDRQNTVCEECPDGTYSDEANHVDPCLPCTVCEDTERQLRECTRWADAECEEIPGGGGRENGRVPRPPDCPKCPAPEMLGGPSVFIFPPKPKDTLLIARTPEVTCVVVDLDPEDPEVQISWFVDGKQMQTAKTQPREEQFNGTYRVVSVLPIGHQDWLKGKQFTCKVNNKALPSPIERTISKARGQAHQPSVYVLPPSREELSKNTVSLTCLIKDFFPPDIDVEWQSNGQQEPESKYRTTPPQLDEDGSYFLYSKLSVDKSRWQRGDTFICAVMHEALHNHYTQKSLSHSPGK
notes: Made in CHO cells; also called PetML119wt; p75NTR-Fc
With B1, in the experiment with Human proNGF [1], the “fold higher affinity for proNGF than for mature NGF” value stood at 171 ×. Moreover, the Kd was 14.4 nM with Human BDNF, 4.9 nM with Human NT-3, 7.2 nM in the experiment with Human NT-4 and 1.9 pM with Human proNGF [2].

B2: Bedinvetmab (antibody, V domains shown)
VH: EVQLVESGGDLVKPGGSLRLSCVASGFTFSSHGMHWVRQSPGKGLQWVAVINSGGSSTYYTDAVKGRFTISRDNAKNTVYLQMNSLRAEDTAMYYCAKESVGGWEQLVGPHFDYWGQGTLVIVSS
VL: QSVLTQPTSVSGSLGQRVTISCSGSTNNIGILGASWYQLFPGKAPKLLVYGNGNRPSGVPDRFSGADSGDSVTLTITGLQAEDEADYYCQSFDTTLGAHVFGGGTHLTVL
Turning to B2, in the experiment with Human NGF (human), the IC50 (nM), inhibition of NGF-dependent TF-1 cell proliferation stood at 0.89 nM; the IC Max, inhibition of NGF-dependent TF-1 cell proliferation was 100; the ICMAX (%), inhibition of NGF-dependent TF-1 cell proliferation turned out to be 96.8%. Moreover, in experiment [3], the Bottom (%), best-fit, PathHunter TrkA activation assay with NGF at 2 nM is 5.35%; the IC50 (nM), PathHunter TrkA activation assay with NGF at 2 nM came out at 4.24 nM; the Top (%), best-fit, PathHunter TrkA activation assay with NGF at 2 nM amounted to 123%; the TrkA inhibition, PathHunter TrkA activation assay with NGF at 2 nM stood at 100%. For the same molecule, the dissociation constant (Kd) in the experiment with Human proNGF [2] worked out at 1.8 pM.

B3: PetML119-S109Y (Canine p75NTR ECD S109Y-canine IgGB wt Fc) (Fc fusion)
chain: KEACPTGLYTHSGECCKACNLGEGVAQPCGANQTVCEPCLDSVTFSDVVSATEPCKPCTECVGLQSMSAPCVEADDAVCRCAYGYYQDETTGRCEACRVCEAGSGLVFYCQDRQNTVCEECPDGTYSDEANHVDPCLPCTVCEDTERQLRECTRWADAECEEIPGRGGGGRENGRVPRPPDCPKCPAPEMLGGPSVFIFPPKPKDTLLIARTPEVTCVVVDLDPEDPEVQISWFVDGKQMQTAKTQPREEQFNGTYRVVSVLPIGHQDWLKGKQFTCKVNNKALPSPIERTISKARGQAHQPSVYVLPPSREELSKNTVSLTCLIKDFFPPDIDVEWQSNGQQEPESKYRTTPPQLDEDGSYFLYSKLSVDKSRWQRGDTFICAVMHEALHNHYTQKSLSHSPGK
notes: Signal peptide left out as for PetML119; If the listing carries them, the end of the range is 426
On to B3, for which the “IC50 (nM), inhibition of NGF-dependent TF-1 cell proliferation” value in the experiment with Human NGF [4] is 0.17 nM. The “ICMAX (%), inhibition of NGF-dependent TF-1 cell proliferation” value in the experiment with Human NGF [4] was found to be 88.5%. Also, the Kd with Human BDNF was found to be 16.7 nM; with Human NT-3 it was 8.3 nM; in the experiment with Human NT-4 it was 12 nM.

B4: PetML119-E75T (Canine p75NTR ECD E75T-canine IgGB wt Fc) (Fc fusion)
chain: KEACPTGLYTHSGECCKACNLGEGVAQPCGANQTVCEPCLDSVTFSDVVSATEPCKPCTECVGLQSMSAPCVEATDAVCRCAYGYYQDETTGRCEACRVCEAGSGLVFSCQDRQNTVCEECPDGTYSDEANHVDPCLPCTVCEDTERQLRECTRWADAECEEIPGRGGGGRENGRVPRPPDCPKCPAPEMLGGPSVFIFPPKPKDTLLIARTPEVTCVVVDLDPEDPEVQISWFVDGKQMQTAKTQPREEQFNGTYRVVSVLPIGHQDWLKGKQFTCKVNNKALPSPIERTISKARGQAHQPSVYVLPPSREELSKNTVSLTCLIKDFFPPDIDVEWQSNGQQEPESKYRTTPPQLDEDGSYFLYSKLSVDKSRWQRGDTFICAVMHEALHNHYTQKSLSHSPGK
notes: The signal peptide (first 19 residues) is left out as for PetML119
With B4, the “fold reduced affinity relative to PetML119wt” value with Human NGF [5] is 40 ×. The figures for the Kd in the experiment with Human BDNF, with Human NT-3 and in the experiment with Human NT-4 were 15.4 nM, 5.1 nM and 98.5 nM, respectively.

B5: PetML119-D134L (Canine p75NTR ECD D134L-canine IgGB wt Fc) (Fc fusion)
chain: KEACPTGLYTHSGECCKACNLGEGVAQPCGANQTVCEPCLDSVTFSDVVSATEPCKPCTECVGLQSMSAPCVEADDAVCRCAYGYYQDETTGRCEACRVCEAGSGLVFSCQDRQNTVCEECPDGTYSDEANHVLPCLPCTVCEDTERQLRECTRWADAECEEIPGRGGGGRENGRVPRPPDCPKCPAPEMLGGPSVFIFPPKPKDTLLIARTPEVTCVVVDLDPEDPEVQISWFVDGKQMQTAKTQPREEQFNGTYRVVSVLPIGHQDWLKGKQFTCKVNNKALPSPIERTISKARGQAHQPSVYVLPPSREELSKNTVSLTCLIKDFFPPDIDVEWQSNGQQEPESKYRTTPPQLDEDGSYFLYSKLSVDKSRWQRGDTFICAVMHEALHNHYTQKSLSHSPGK
notes: Signal peptide left out as for PetML119; also called D134L mutant
On to B5, for which, in the experiment with Human NGF [5], the “fold reduced affinity relative to PetML119wt” value is 20 ×. The Kd in the experiment with Human BDNF was determined as 26.7 nM; with Human NT-3, 8.3 nM; in the experiment with Human NT-4 it was 101 nM.

B6: PetML119-V133R (Canine p75NTR ECD V133R-canine IgGB wt Fc) (Fc fusion)
chain: KEACPTGLYTHSGECCKACNLGEGVAQPCGANQTVCEPCLDSVTFSDVVSATEPCKPCTECVGLQSMSAPCVEADDAVCRCAYGYYQDETTGRCEACRVCEAGSGLVFSCQDRQNTVCEECPDGTYSDEANHRDPCLPCTVCEDTERQLRECTRWADAECEEIPGRGGGGRENGRVPRPPDCPKCPAPEMLGGPSVFIFPPKPKDTLLIARTPEVTCVVVDLDPEDPEVQISWFVDGKQMQTAKTQPREEQFNGTYRVVSVLPIGHQDWLKGKQFTCKVNNKALPSPIERTISKARGQAHQPSVYVLPPSREELSKNTVSLTCLIKDFFPPDIDVEWQSNGQQEPESKYRTTPPQLDEDGSYFLYSKLSVDKSRWQRGDTFICAVMHEALHNHYTQKSLSHSPGK
notes: Signal peptide left out as for PetML119
Regarding B6, the Kd with Human BDNF came out at 42.3 nM; with Human NT-3, 7.2 nM; in the experiment with Human NT-4, 8.3 nM.

B7: PetML119-S109H (Canine p75NTR ECD S109H-canine IgGB wt Fc) (Fc fusion)
chain: KEACPTGLYTHSGECCKACNLGEGVAQPCGANQTVCEPCLDSVTFSDVVSATEPCKPCTECVGLQSMSAPCVEADDAVCRCAYGYYQDETTGRCEACRVCEAGSGLVFHCQDRQNTVCEECPDGTYSDEANHVDPCLPCTVCEDTERQLRECTRWADAECEEIPGRGGGGRENGRVPRPPDCPKCPAPEMLGGPSVFIFPPKPKDTLLIARTPEVTCVVVDLDPEDPEVQISWFVDGKQMQTAKTQPREEQFNGTYRVVSVLPIGHQDWLKGKQFTCKVNNKALPSPIERTISKARGQAHQPSVYVLPPSREELSKNTVSLTCLIKDFFPPDIDVEWQSNGQQEPESKYRTTPPQLDEDGSYFLYSKLSVDKSRWQRGDTFICAVMHEALHNHYTQKSLSHSPGK
B7: the “IC50 (nM), inhibition of NGF-dependent TF-1 cell proliferation” value with Human NGF [4] came out at 2.15 nM. The “ICMAX (%), inhibition of NGF-dependent TF-1 cell proliferation” value in the experiment with Human NGF [4] came out at 93.5%. The results for the Kd with Human BDNF, in the experiment with Human NT-3 and in the experiment with Human NT-4 were 16.2 nM, 7.9 nM and 9.1 nM, respectively.
